Entries after “also recorded” stand apart in the source; their conditions may differ.
Tested on: female C57BL/6 mice
Assay: In vivo mice fertility study with RANKL inducer PTH
Settings: vs vehicle
Source text: Twelve (12) female C57BL/6 mice will be allocated to two treatment groups (n=6, n=6) and administered with test article according to table 1. On study day 7, all females of each treatment group+3 male C57BL/6 mice will be allocated to the fertility study. In the fertility study pairs of 2 females will be housed with 1 male for a period of 5 days. During the 5 days all females are observed daily for vaginal plugs at least once per day. Administration of test articles will continue according to table 1 during the fertility study (days 7 to 11). Presence of vaginal plug, apparent pregnancy, and litter size will be recorded for each female. Females and litter will be terminated at the end of the fertility study and the weight of the pups will be determined.
Administration of test article i.p. (group 1) or vehicle i.p. (group 2) will be conducted 2 times a week for a period of 12 days. • Gr.1: 6 mice, i.p. dosing 2 times weekly for 12 days • Gr.2: 6 mice, i.p. dosing 2 times weekly for 12 days
One blood sample will be harvested on study day 12 from all female mice in the study. The blood samples will be drawn by sublingual vein puncture.
Termination: • female mice from the fertility study, will be terminated on nominal study day 12. Twelwe (12) mice will be euthanized after giving birth to litters

B1: PTH: Parathyroidea hormone; well-characterized RANKL inducer (protein, UniProt P01270 32-115, looked up)
Parathyroid hormone: SVSEIQLMHNLGKHLNSMERVEWLRKKLQDVHNFVALGAPLAPRDAGSQRPRKKEDNVLVESHEKSLGEADKADVNVLTKAKSQ
modifications: Parathyroid hormone
notes: Parathyroidea hormone; well-characterized RANKL inducer
pregnancy rate (PTH 5 μg/kg i.p., females paired with WT males, FIG. 14A): increased; also recorded: doubled | number of pups (PTH 5 μg/kg i.p., females paired with WT males, FIG. 14B): increased | number of pups per female (PTH 5 μg/kg i.p., females paired with WT males, FIG. 14C): increased | ovary weight (short-term PTH 5 μg/kg i.p., healthy female mice, p<0.05, data not shown): small but significant effect
